Assay: soluble on expression in E. coli; label from the status in PepcDB or PDB records

Sequence	soluble on expression in E. coli
MGSDKIHHHHHHMKTELVQVETEDSIVLHGAFYEAEQGKPAIIIMHGAAMNFYTGLGRFLPEILSEHGFSCLSANNRGHDFGTAPDHDRKPVIGLMRDIFKDCVKDVQALLHFLRSRGYPRVILLGHSQAIPKLLYAQNQLQFPEVQGMILVSPPPSVSKMMRYLTTDNYYERGLFKANELGEMGMYDQLIVLRGRGTMPWIFTVSTFLDFYGPNTPADTEELVKEIYCPMLLIRGSMDFPPVSMELMHNMKQNAAVPESVTIREINEASHFYSGQEKQLGNTILEWLDSY	not soluble
MAHHHHHHMPTFSDIMAARKALDGYVYETPIIESNALHGKTRHESVLLKCENLQRTGSYHVRGMTYRVIRAKEEDLGINNFVTHSSGNGGAALACAASNFQSTAHVVVPEDTNALITRSIRLYHGNFYYCKPDLKSRVEMEARLHSEFNKVAGKKRNQCMLVNPYSDEAIIAGHGTTGIEIMLQTDCSVDCVVIPVGGGALLAGAAIAVKGMKPHVGVFAAELAVPPDHYTVFKRGEVIEARKLKGDEKRPKGNKHGIRTELTDLANSYIDRYVDGVVHVSKEEMCYAFRYVYERCKLVVDTNAAIAVAAVLACPQELSNYRRICIVLSGGNVDLNDVPKIATARL	soluble
MAHHHHHHMGTTASTDSADSPFSVRSVDSSGGGGWRQEDPERFRKYMHLKSQADQWRQRHGHTPGATRGELTKNLIEEVYEEDFESVDHVQSMRLPPMVLKEMKDAVANEAERRCAETEKVMARCLQDKMWTSWKCQKERDALYQCVADRKEDNELLMAYRWKYNLGTFHGELIGRNNMMRRIWKEHFPDRDLPHPWVKDA	not soluble
GPGSMQKENDRMRKKKDEAREEEEISIFHCDDGSVYEGRVTRREIPVELPLGMPTPAPASTLRGQPPPEVMPQIVPIQHGKGIFKDAGGTIYDGNWIEGAMCGEGVLQFPSGATYTGGMRANEFCGTGTYNWPDGSRYEGQWENNRMHGFGVYVDAQGGRWAGKFYRGCGVGLLGEIHL	soluble
MALIQSCSGNTMTTDTIVAQATAPGRGGVGIIRVSGPLAAHVAQTVTGRTLRPRYAEYLPFTDEDGQQLDQGIALFFPNPHSFTGEDVLELQGHGGPVVMDMLIRRILQIKGVRPARPGEFSERAFLNDKMDLTQAEAIADLIDASSEQAAKSALQSLQGEFSKRIHTLVESLIHLRIYVEAAIDFPEEEIDFLADGKVSADLQTIIDNLAAVRREANQGAIMREGMKVVIAGRPNAGKSSLLNALSGKESAIVTDIAGTTRDVLREHIHIDGMPLHIIDTAGLRDASDAVEKIGIERAWEEIRQADRVLFMVDGTTTEATDPQDIWPDFVDKLPENIGITVIRNKADQTGEPLGICHVNQPTLIRLSAKTGQGVDALRQHLKECMGFSGNQEGGFMARRRHLDALERAAEHLAIGQQQLEGYMAGEILAEELRIAQQHLNEITGEFSSDDLLGRIFSSFCIGK	not soluble
MAHHHHHHMEDVRPVTSPLTEDTAYTRCLRGAKEAKERGNTAISDKNFKEASFQYKKALLFLSEYIPGDGGFSEDALIDMLARRRGVATPRDLSPGRKSELMDLYVTVMNNLAVADMRLCRFDKGVEHTTKVLNVPGQEKNRKALWRRAECHVQRGHIEEAEKDVDVLAACAEGNGQQSEEVVEQLRMKIKEKKKQLVREERAICKKMFEHGS	soluble
SLEECVCENYKLAVNCFVNNNRQCQCTSVGAQNTVICSKLAAKCLVMKAEMNGSKLGRRAKPEGALQNNDGLYDPDCDESGLFKAKQCNGTSTCWCVNTAGVRRTDKDTEITCSERVRTYWIIIELKHKAREKPYDSKSLRTALQKEITTRYQLDPKFITSILYENNVITIDLVQNSSQKTQNDVDIADVAYYFEKDVKGESLFHSKKMDLTVNGEQLDLDPGQTLIYYVDEKAPEFSEG	not soluble
MTDQPIIDYRFLEPLPRGIILAATPLGNIGDASPRLAQALAQAHVVAAEDTRRTRALAQALGVEITGQVLSNFDHNEQGRAQQLVEMARTHTVVVVTDAGMPIVSDPGFPLVEAAHKAGVPVTCFPGPSAVPTALALSGLHVGKFAFDGFAPRKQGQRRAWLESLQQEQRAVCFFESPHRIAATLADAAEVLGAKRRAAVARELTKTFEEVRRGGLGELAEWAAKGIKGEVSVVIEGVQHVQHEDVHSLVAVVEERVLAGERLKSACGEVAAHYGVSKKQLYDAVLESRAE	soluble
MMKKFIAPLLALLVSGCQIDPYTHAPTLTSTDWYDVGMEDAISGSAIKDDDAFSDSQADRGLYLKGYAEGQKKTCQTDFTYARGLSGKSFPASCNNVENASQLHEVWQKGADENASTIRLN	soluble
MGSDKIHHHHHHMTAASSVSAPGAPTIGVDFGTTNTVVSLTLGDDQARLVRYSINNRDLFAFRSALSFHSVQGVGEAANERVVEAGPWAIEAYLEDPLETRFIQSFKTFAASAAFTETRILNKRYQFEDLLAAFLLRLRDHAGAQLSELPPRIIVGRPVTFAGSSPDEALALTRYEAAFERLGFTDIRYAYEPVGAAFFFARQLKQDATVLVADFGGGTSDFSLVRFERAADGTLRSTPLSRSGVGVAGDAFDYRIIDQLVSPELGKGSDYRSFSNSLPIPQRYYAAFARWDQLALLRASKDMRDIRALERTAVEPDKIAALIEVLDGNHGYALYRSVSALKEALSSQDQATFRFEAGSVRIEKPVARVEFEAWIAPELAAIETAVGQALDQADLTEAGVDRVFLTGGSSFVPAVREIFLRRFGADKIETGGEFESIASGLALIGREADLDLWTMRAG	not soluble
SASATAPAAAVPTLASPLEQLRHLAEELRLLLPRVRVGEAQETTEEFNREMFWRRLNEAAVTVSREATTLTIVFSQLPLPSPQETQKFCEQVHAAIKAFIAVYYLLPKDQGITLRKLVRGATLDIVDGMAQLMEVLSVTPTQSPENNDLISYNSVWVACQQMPQIPRDNKAAALLMLTKNVDFVKDAHEEMEQAVEECDPYSGLLNDTEENNSDNHNHEDDVLGFPSNQDLYWSEDDQELIIPCLALVRASKACLKKIRMLVAENGKKDQVAQLDDIVDISDEISPSVDDLALSIYPPMCHLTVRINSAKLVSVLKKALEITKASHVTPQPEDSWIPLLINAIDHCMNRIKELTQSELEL	soluble
IVVYTDREVYGAVGSQVTLHCSFWSSEWVSDDISFTWRYQPEGGRDAISIFHYAKGQPYIDEVGTFKERIQWVGDPSWKDGSIVIHNLDYSDNGTFTCDVKNPPDIVGKTSQVTLYVFEKVPTR	soluble
MNHKVHHHHHHIEGRHMDEYKQVDVGKDGMVATAHPLASEIGADVLKKGGNAIDAAVAIQFALNVTEPMMSGIGGGGFMMVYDGKTKDTTIIDSRERAPAGATPDMFLDENGKAIPFSERVTKGTAVGVPGTLKGLEEALDKWGTRSMKQLITPSIKLAEKGFPIDSVLAEAISDYQEKLSRTAAKDVFLPNGEPLKEGDTLIQKDLAKTFKLIRSKGTDAFYKGKFAKTLSDTVQDFGGSMTEKDLENYDITIDEPIWGDYQGYQIATTPPPSSGGIFLLQMLKILDHFNLSQYDVRSWEKYQLLAETMHLSYADRASYAGDPEFVNVPLKGLLHPDYIKERQQLINLDQVNKKPKAGDPWKYQEGSANYKQVEQPKDKVEGQ	soluble
SNAMNNTQKKLKVLFIGESWHIHMIHSKGYDSFTSSKYEEGATWLLECLRKGGVDIDYMPAHTVQIAFPESIDELNRYDVIVISDIGSNTFLLQNETFYQLKIKPNALESIKEYVKNGGGLLMIGGYLSFMGIEAKANYKNTVLAEVLPVIMLDGDDRVEKPEGICAEAVSPEHPVVNGFSDYPVFLGYNQAVARDDADVVLTINNDPLLVFGEYQQGKTACFMSDCSPHWGTQQFMSWPFYTDLWVNTLQFIARK	soluble
MGSDKIHHHHHHMGIYRTQLPQLDGGVFLTDGGIETTLIFHEGFELPYFAAFELLKTPQGRDALTHYFVTYVKLAGLFDTGFILESPTWRASSDWGALLGYTKETLAQANREAIALLEVIREAHSGRLPVVVSGCIGPRFDGYLPDKSMTAEDARHYHSIQIETLASTSADMICALTLNRVEEAIGIVEAAREAAMPVVISFTLETDGRLPTGQSLGDAVVQVDEATAGYAAYFMINCAHPSHLETVPQDAPWLARVKGFRANASSLSHAELNDATTLDDGDPHQLGQQYASLMSTRLKGLNVLGGCCGTDHRHLEQIAKACIKPR	not soluble
MKYDLIIIGSGSVGAAAGYYATRAGLNVLMTDAHMPPHQHGSHHGDTRLIRHAYGEGEKYVPLVLRAQMLWDELSRHNEDDPIFVRSGVINLGPADSTFLANVAHSAEQWQLNVEKLDAQGIMARWPEIRVPDNYIGLFETDSGFLRSELAIKTWIQLAKEAGCAQLFNCPVTAIRHDDDGVTIETADGEYQAKKAIVCAGTWVKDLLPELPVQPVRKVFAWYQADGRYSVKNKFPAFTGELPNGDQYYGFPAENDALKIGKHNGGQVIHSADERVPFAEVVSDGSEAFPFLRNVLPGIGCCLYGAACTYDNSPDEDFIIDTLPGHDNTLLITGLSGHGFKFASVLGEIAADFAQDKKSDFDLTPFRLSRFQ	soluble
MEKKIGFIGCGNMGKAILGGLIASGQVLPGQIWVYTPSPDKVAALHDQYGINAAQSAQEVAQVADIVFGAVKPGIMVKVLSEISSSLNKDSLVVSIAAGVTLDQLARALGHDRKIIRAMPNTPSLVNAGMTSVTPNALVTPEDTADVLNIFRCFGGAEVIAEPMIHPVVGVSGSSPAYVFMFIEAMADAAVLGGMPRAQAYKFAAQAVMGSAKMVLETGKHPGELKDMVCSPGGTTIEAVRVLEERGFRAAVIEAMTKCMEKSEALSKSLEHHHHHH	soluble
MSTLKIAPSILAADYANFASELARIEETDAEYVHIDIMDGQFVPNISFGADVVASMRKHSKLVFDCHLMVVDPERYVEAFAQAGADIMTIHTESTRHIHGALQKIKAAGMKAGVVINPGTPATALEPLLDLVDQVLIMTVNPGFGGQAFIPECLEKVATVAKWRDEKGLSFDIEVDGGVDNKTIRACYEAGANVFVAGSYLFKASDLVSQVQTLRTALNV	soluble
MGSDKIHHHHHHMYRSRNRPKRGGENEVKGPNSALTQFLREEGISAENIKQKWYQRQSKKQEDATDEKKGKAEDDSFTAEISRVVEDEEIDEIGTGSGTETERAQVSYDARMKLVPADSDEEEYETSHISDTPVSLSSANDRESLTKKRQNTAKIIQNRRRKRKRAADLLDRRVNKVSSLQSLCITKISENISKWQKEADESSKLVFNKLRDVLGGVSTANLNNLAKALSKNRALNDHTLQLFLKTDLKRLTFSDCSKISFDGYKTLAIFSPHLTELSLQMCGQLNHESLLYIAEKLPNLKSLNLDGPFLINEDTWEKFFVIMKGRLEEFHISNTHRFTDKSLSNLLINCGSTLVSLGLSRLDSISNYALLPQYLVNDEFHSLCIEYPFNEEDVNDEIIINLLGQIGRTLRKLVLNGCIDLTDSMIINGLTAFIPEKCPLEVLSLEESDQITTDSLSYFFSKVELNNLIECSFRRCLQLGDMAIIELLLNGARDSLRSLNLNSLKELTKEAFVALACPNLTYLDLGFVRCVDDSVIQMLGEQNPNLTVIDVFGDNLVTEKATMRPGLTLIGRQSDSI	not soluble
GGVIATQMTYKVYMSGTVNGHYFEVEGDGKGRPYEGEQTVKLTVTKGGPLPFAWDILSPQCQYGSIPFTKYPEDIPDYVKQSFPEGFTWERIMNFEDGAVCTVSNDSSIQGNCFTYHVKFSGLNFPPNGPVMQKKTQGWEPSSERLFARGGMLIGNNFMALKLEGGGHYLCEFKTTYKAKKPVKMPGYHYVDRKLDVTNHNKDYTSVEQCEISIARKPVVA	soluble
